According to patent publication US20140242093A1, “METHODS AND COMPOSITIONS FOR MODULATING THE INNATE IMMUNE RESPONSE AND/OR MYOGENESIS IN A MAMMALIAN SUBJECT” (FRED HUTCHINSON CANCER RESEARCH CENTER, priority 2011, published 2014):

Test system: control human primary myoblasts
Test: Expression microarray of primary myoblasts transduced with lentivirus carrying DUX4-fl, DUX4-s or GFP
Experimental: Primary human myoblasts were collected and cultured as previously described (Snider et al., 2010). Primary myoblasts were maintained at or below 70% confluency for proliferation. For differentiation, cells were allowed to reach 95-100% confluency in growth medium. Once confluency was reached, the cells were changed to differentiation medium (F10 media supplemented with 1% horse serum, 10 μg/mL insulin, and 10 μg/mL transferrin, penicillin/streptomycin) and maintained for 4 days. Human RD cells were grown in DMEM in 10% bovine calf serum (Hyclone) and penicillin/streptomycin. The primary myoblasts were transduced with lentivirus carrying DUX-fl, DUX4- or GFP (MOI=15).
Expression microarrays were performed on the transduced cells at 24 hours after transduction as follows. […] Samples were analyzed by Illumina Human Whole Genome microarrays. Probe intensities were corrected, normalized, and summarized by the Lumi package of Bioconductor (Du et al., 2008). Differentially expressed genes were identified by the LIMMA package of Bioconductor (Wettenhall and Smyth, 2004). Gene set enrichment analysis (GSEA) was performed using the Bioconductor GOstats package (Falcon and Gentleman, 2007).

B1: DUX4-s: short splice form of DUX4 (SEQ ID NO:112), keeps the double-homeobox domains, lacks the C-terminal activation domain (protein, listed as Homo sapiens)
chain: MALPTPSDSTLPAEARGRGRRRRLVWTPSQSEALRACFERNPYPGIATRERLAQAIGIPEPRVQIWFQNERSRQLRQHRRESRPWPGRRGPPEGRRKRTAVTGSQTALLLRAFEKDRFPGIAAREELARETGLPESRIQIWFQNRRARHPGQGGRAPAQV
- C1orf55 expression fc (Refseq NM_152608.3): −0.3632
- MLKL expression fc (Refseq NM_152649.1, cultured human skeletal muscle): 1.457
- ZSCAN4 expression fc (Refseq NM_152677.1): 0.04366
- SAMD9L expression fc (Refseq NM_152703.2, cultured human skeletal muscle): 1.257
- VWCE expression fc (Refseq NM_152718.2, cultured human skeletal muscle): −0.1213
- fc of D2HGDH (expression array) (Refseq NM_152783.3): −0.3982
- FAS fc (Refseq NM_152877.1): 0.1452
- APCDD1 expression fc (Refseq NM_153000.3, cultured human skeletal muscle): −0.4301
- PMP22 fc (Refseq NM_153321.1): 0.2667
- SLC2A14 expression fc (Refseq NM_153449.2): 0.2472
- CYBASC3 expression fc (Refseq NM_153611.3, cultured human skeletal muscle): −0.4218
- GPBAR1 expression fc (Refseq NM_170699.2): −0.1298
- NLRX1 fc (Refseq NM_170722.1): −0.1409
- fc of HSCB (expression array) (Refseq NM_172002.3): 0.1735
- fc of ZNF650 (expression array) (Refseq NM_172070.2): 0.6904
- fc of IL4I1 (expression array) (Refseq NM_172374.1): 1.769
- KLF17 expression fc (Refseq NM_173484.3): 0.08045
- fc of RCOR2 (expression array) (Refseq NM_173587.2): −0.1949
- fc of DCBLD1 (expression array) (Refseq NM_173674.1): 1.594
- WARS expression fc (Refseq NM_173701.1, cultured human skeletal muscle): 1.715
- fc of C3orf38 (expression array) (Refseq NM_173824.2): 1.033
- fc of UBR1 (expression array) (Refseq NM_174916.1): 1.111
- fc of C4orf34 (expression array) (Refseq NM_174921.1): 0.6119
- FRMD3 fc (Refseq NM_174938.3): −0.2907
- MT1E expression fc (Refseq NM_175617.3, cultured human skeletal muscle): 0.1289
- TXLNA fc (Refseq NM_175852.3): −0.1621
- MT1M expression fc (Refseq NM_176870.2, cultured human skeletal muscle): 1.185
- PPAP2A fc (Refseq NM_176895.1): 0.545
- CSE1L expression fc (Refseq NM_177436.1): 0.07287
- PPM1B expression fc (Refseq NM_177968.2): −0.0342
- fc of STARD13 (expression array) (Refseq NM_178006.1): −0.8963
- RILPL1 fc (Refseq NM_178314.2): 0.6233
- HIF1A fc (Refseq NM_181054.1): 0.4209
- ID1 fc (Refseq NM_181353.1): 0.7329
- C1QTNF3 expression fc (Refseq NM_181435.4): −0.02264
- PPP2R2B expression fc (Refseq NM_181677.1): −0.1091
- PPP2R2C fc (Refseq NM_181876.2): −0.2308
- BCL9L fc (Refseq NM_182557.2): 0.7326
- fc of IRF2BP2 (expression array) (Refseq NM_182972.2): −0.806
- fc of TRIM69 (expression array) (Refseq NM_182985.3): 0.2639
- fc of TRIM55 (expression array) (Refseq NM_184086.1): 0.1967
- RBM39 expression fc (Refseq NM_184234.1): 0.263
- INO80C expression fc (Refseq NM_194281.3): −0.1128
- SPTY2D1 expression fc (Refseq NM_194285.2): −0.2916
- fc of RNASE4 (expression array) (Refseq NM_194431.1): −0.1107
- BID fc (Refseq NM_197966.1): −0.1675
- fc of MZF1 (expression array) (Refseq NM_198055.1): 0.05558
- fc of ARSK (expression array) (Refseq NM_198150.1): 1.03
- fc of SRC (expression array) (Refseq NM_198291.1): 0.0569
- fc of APOOL (expression array) (Refseq NM_198450.3): 1.369
- DENND2C expression fc (Refseq NM_198459.2): −0.2684
- TPRX1 expression fc (Refseq NM_198479.2): −0.05019
- AGRN expression fc (Refseq NM_198576.2, cultured human skeletal muscle): 0.3808
- C1QTNF1 expression fc (Refseq NM_198594.1, cultured human skeletal muscle): 0.7696
- fc of SERPINB8 (expression array) (Refseq NM_198833.1): 1.016
- SEMA4B expression fc (Refseq NM_198925.1, cultured human skeletal muscle): 0.1542
- C9orf169 expression fc (Refseq NM_199001.1, cultured human skeletal muscle): −0.05213
- T1560 expression fc (Refseq NM_199048.1): 0.02012
- XAF1 expression fc (Refseq NM_199139.1, cultured human skeletal muscle): 0.6222
- SAA1 expression fc (Refseq NM_199161.1, cultured human skeletal muscle): 0.2569
- C20orf117 fc (Refseq NM_199181.2): −0.5322
- fc of TMEM189-UBE2V1 (expression array) (Refseq NM_199203.1): 0.06378
- DGKA expression fc (Refseq NM_201554.1, cultured human skeletal muscle): 0.1014
- fc of ZMYM3 (expression array) (Refseq NM_201599.1): −0.01297
- FBXO33 expression fc (Refseq NM_203301.1): 0.2162
- SYNJ1 expression fc (Refseq NM_203446.1): −0.07515
- fc of CMPK2 (expression array) (Refseq NM_207315.2): 1.351
- CYP4V2 fc (Refseq NM_207352.2): −0.4989
- fc of C15orf52 (expression array) (Refseq NM_207380.1): −0.2956
- FLJ45337 expression fc (Refseq NM_207465.1): −0.2461
- ATP2B1 fc (Refseq NM_001001323.1): −0.7039
- FLJ45139 expression fc (Refseq NM_001001692.1): 0.1009
- OR2T34 expression fc (Refseq NM_001001821.1): −0.05408
- fc of GPM6B (expression array) (Refseq NM_001001995.1): −1.119
- NT5C1B expression fc (Refseq NM_001002006.1): −0.03655
- fc of NT5C3 (expression array) (Refseq NM_001002010.1): 1.882
- RAB11FIP1 expression fc (Refseq NM_001002814.1): −0.4765
- fc of LEPR (expression array) (Refseq NM_001003679.1): −0.5494
- ZNF705A expression fc (Refseq NM_001004328.1): −0.06059
- HIST2H3A expression fc (Refseq NM_001005464.2): −0.05203
- GBA fc (Refseq NM_001005742.1): 0.289
- SIAH1 expression fc (Refseq NM_001006610.1): −0.0793
- OPTN fc (Refseq NM_001008213.1): −0.5727
- SLC7A2 expression fc (Refseq NM_001008539.2, cultured human skeletal muscle): −0.1055
- CXCR4 expression fc (Refseq NM_001008540.1): −0.0521
- fc of CLSTN1 (expression array) (Refseq NM_001009566.1): −0.2768
- PRAMEF4 expression fc (Refseq NM_001009611.1): 0.0423
- C6orf191 expression fc (Refseq NM_001010876.1): −0.05752
- PRAMEF6 expression fc (Refseq NM_001010889.2): −0.06189
- PRAMEF9 expression fc (Refseq NM_001010890.1): −0.07265
- PRAMEF8 expression fc (Refseq NM_001012276.1): 0.1662
- PRAMEF7 expression fc (Refseq NM_001012277.1): 0.106
- fc of MYPOP (expression array) (Refseq NM_001012643.2): −0.03552
- PRAMEF5 expression fc (Refseq NM_001013407.1): 0.1054
- HNRNPCL1 expression fc (Refseq NM_001013631.1): −0.1035
- RFPL4B expression fc (Refseq NM_001013734.2): −0.1031
- ODF3B fc (Refseq NM_001014440.2): 0.4296
- DNAJC25 expression fc (Refseq NM_001015882.2): −0.5072
- KCNK2 fc (Refseq NM_001017425.2): 0.2137
- CCDC58 expression fc (Refseq NM_001017928.2): 0.07678
- fc of ATP6AP1L (expression array) (Refseq NM_001017971.1): 0.02803
- SH3PXD2B fc (Refseq NM_001017995.1): −0.01555
- ZBTB16 expression fc (Refseq NM_001018011.1, cultured human skeletal muscle): 0.4921
- fc of SERBP1 (expression array) (Refseq NM_001018069.1): −1.179
- SOD2 expression fc (Refseq NM_001024466.1, cultured human skeletal muscle): 1.532
- fc of RUNX2 (expression array) (Refseq NM_001024630.2): 0.05524
- CLK1 expression fc (Refseq NM_001024646.1): 0.0752
- fc of TGFBR2 (expression array) (Refseq NM_001024847.1): 0.1743
- TSPAN4 fc (Refseq NM_001025235.1): −0.1169
- fc of RFX5 (expression array) (Refseq NM_001025603.1): −0.06023
- PSRC1 fc (Refseq NM_001032290.1): −0.4871
- OAS1 expression fc (Refseq NM_001032409.1, cultured human skeletal muscle): 1.453
- ENTPD8 expression fc (Refseq NM_001033113.1): 0.03523
- RHOT1 fc (Refseq NM_001033566.1): 0.3308
- CYFIP2 fc (Refseq NM_001037333.1): −0.633
- fc of PHYH (expression array) (Refseq NM_001037537.1): −0.5757
- fc of EFEMP1 (expression array) (Refseq NM_001039348.1): −0.2077
- PRAMEF10 expression fc (Refseq NM_001039361.1): 0.008756
- ETNK1 expression fc (Refseq NM_001039481.1): 0.06444
- LOC440053 expression fc (Refseq NM_001039615.1): −0.09982
- CBLN3 fc (Refseq NM_001039771.2): 0.1543
- HEY1 expression fc (Refseq NM_001040708.1): −0.04271
- fc of UHRF1 (expression array) (Refseq NM_001048201.1): −1.034
- DBNDD2 expression fc (Refseq NM_001048223.1): 0.2257
- NCOR2 fc (Refseq NM_001077261.1): −0.2241
- fc of NFKB2 (expression array) (Refseq NM_001077493.1): 0.2202
- fc of SLC29A1 (expression array) (Refseq NM_001078174.1): −1.034
- DYNC2H1 expression fc (Refseq NM_001080463.1): 0.04558
- PRAMEF12 expression fc (Refseq NM_001080830.1): 0.1269
- FRG2B expression fc (Refseq NM_001080998.1): 0.1315
- DEFB103A expression fc (Refseq NM_001081551.2): 0.06581
- CPSF4 fc (Refseq NM_001081559.1): −0.2674
- fc of GPD2 (expression array) (Refseq NM_001083112.1): 1.197
- fc of GPR1 (expression array) (Refseq NM_001098199.1): 0.2201
- HLA-F expression fc (Refseq NM_001098479.1, cultured human skeletal muscle): 0.9368
- RFPL3 expression fc (Refseq NM_001098535.1): −0.06033
- PRR4 expression fc (Refseq NM_001098538.1): 0.1606
- FAM156B fc (Refseq NM_001099684.1): −0.1712
